A word on the Kd: it is a measure of binding affinity in units of concentration. Low readings indicate tighter binding, high ones weaker binding.

B3: CCL5_HUMAN (ligand)
chain: SPYSSDTTPCCFAYIARPLPRAHIKEYFYTSGKCSNPAVVFVTRKNRQVCANPEKKWVREYINSLEMS
notes: Biotinylated (detected with streptavidin-Alexa647) in yeast display; AlexaFluor 647 labelled (Almac) in thermophoresis
B6: P546_AMBCA (other)
chain: ENTQQEEEDYDYGTDTCPFPVLANKTNKAKFVGCHQKCNGGDQKLTDGTACYVVERKVWDRMTPMLWYSCPLGECKNGVCEDLRKKEECRKGNGEEK
notes: Tick evasin; also called Evasin

For one test, the target named is T1, CCL19_HUMAN (human, UniProt Q99731 22-98).
T1 construct: Biotinylated (detected with streptavidin-Alexa647) in yeast display; AlexaFluor 647 labelled (Almac) in thermophoresis
T1 sequence: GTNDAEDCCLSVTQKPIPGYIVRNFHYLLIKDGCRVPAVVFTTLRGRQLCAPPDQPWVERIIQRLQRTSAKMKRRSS
The test can be described thus: yeast surface display library FACS screen, labelled chemokine (col C: isolated in).

In another test the target is T2, CCL3_HUMAN (human, UniProt P10147 24-92).
T2 construct: Biotinylated (detected with streptavidin-Alexa647) in yeast display; AlexaFluor 647 labelled (Almac) in thermophoresis
T2 sequence: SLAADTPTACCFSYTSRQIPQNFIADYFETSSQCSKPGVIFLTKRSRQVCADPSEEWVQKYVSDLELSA
The test is described as above.

The target in another test is T3, CXCL10_HUMAN (human, UniProt P02778 22-98).
T3 construct: Biotinylated (detected with streptavidin-Alexa647) in yeast display; AlexaFluor 647 labelled (Almac) in thermophoresis
T3 sequence: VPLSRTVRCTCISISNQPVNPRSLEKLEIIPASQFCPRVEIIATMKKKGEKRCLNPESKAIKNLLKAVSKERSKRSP
The test is described as above.

A further test addresses T4, CCL18_HUMAN (human, UniProt P55774 21-89).
T4 construct: Biotinylated (detected with streptavidin-Alexa647) in yeast display; AlexaFluor 647 labelled (Almac) in thermophoresis
T4 sequence: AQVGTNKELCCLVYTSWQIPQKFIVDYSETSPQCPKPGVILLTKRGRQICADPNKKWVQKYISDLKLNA
The test can be described thus: yeast surface display FACS re-test, >3 fold MFI over control (col D).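 Further: yeast displaying putative tick Evasins stained with biotinylated human chemokine plus streptavidin-Alexa647, flow cytometry, positive when MFI exceeds 3-fold the empty-vector or no-chemokine background.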

The target in another test is T5, CCL1_HUMAN (human, UniProt P22362 24-96).
T5 construct: Biotinylated (detected with streptavidin-Alexa647) in yeast display; AlexaFluor 647 labelled (Almac) in thermophoresis
T5 sequence: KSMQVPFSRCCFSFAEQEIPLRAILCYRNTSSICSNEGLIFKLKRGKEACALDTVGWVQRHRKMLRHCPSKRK
The test can be described thus: yeast surface display library FACS screen, labelled chemokine (col C: isolated in).

The target in a further test is T6, CXCL8_HUMAN (human, UniProt P10145 28-99).
T6 construct: Biotinylated (detected with streptavidin-Alexa647) in yeast display; AlexaFluor 647 labelled (Almac) in thermophoresis
T6 sequence: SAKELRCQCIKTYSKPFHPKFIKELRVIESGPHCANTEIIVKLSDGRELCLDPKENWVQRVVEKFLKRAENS
The test is described as above.

The next test has as its target T7, CCL11_HUMAN (human, UniProt P51671 24-97).
T7 construct: Biotinylated (detected with streptavidin-Alexa647) in yeast display; AlexaFluor 647 labelled (Almac) in thermophoresis
The test is described as above.

The target in the test “CCL5_HUMAN” is B3. The test can be described thus: microscale thermophoresis, AlexaFluor 647 labelled chemokine. A general note: Microscale thermophoresis detects binding through changes in fluorescence in a small temperature gradient.
Test [1] concerns the target T8, P985_AMBPA (Amblyomma parvum, UniProt A0A023FT45 25-132).
T8 construct: Tick evasin; also called Evasin
T8 sequence: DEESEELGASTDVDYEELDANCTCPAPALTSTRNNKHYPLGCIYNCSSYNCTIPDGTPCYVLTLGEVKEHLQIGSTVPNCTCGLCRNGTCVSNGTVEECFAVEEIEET
The test is described as above.

For another test, the target named is T9, P467_RHIPU (Rhipicephalus pulchellus, UniProt L7M8Z8 22-127).
T9 construct: Tick evasin; also called Evasin
T9 sequence: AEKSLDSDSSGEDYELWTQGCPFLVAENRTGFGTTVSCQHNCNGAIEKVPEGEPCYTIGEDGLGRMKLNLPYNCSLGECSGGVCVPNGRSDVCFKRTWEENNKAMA
Described as above.

For a further test, the target named is T10, P983_AMBCA (Amblyomma cajennense, UniProt A0A023FFB5 22-119).
T10 construct: Tick evasin; also called Evasin
T10 sequence: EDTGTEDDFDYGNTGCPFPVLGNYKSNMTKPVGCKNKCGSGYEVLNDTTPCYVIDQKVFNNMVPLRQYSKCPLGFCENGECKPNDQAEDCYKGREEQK
The test can be described thus: yeast surface display FACS re-test, >3 fold MFI over control (col D).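 Further: yeast displaying putative tick Evasins stained with biotinylated human chemokine plus streptavidin-Alexa647, flow cytometry, positive when MFI exceeds 3-fold the empty-vector or no-chemokine background.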

The target in test [2] is T8, P985_AMBPA. The description is as above.
For test [3], the target named is B6. The test is described as above.
For the next test, the target named is T11, P991_AMBCA (Amblyomma cajennense, UniProt A0A023FFD0 29-136).
T11 construct: Tick evasin; also called Evasin
T11 sequence: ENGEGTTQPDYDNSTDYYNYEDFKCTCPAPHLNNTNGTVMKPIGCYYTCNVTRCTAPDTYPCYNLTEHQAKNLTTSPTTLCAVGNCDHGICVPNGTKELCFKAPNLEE
The test can be described thus: yeast surface display library FACS screen, labelled chemokine (col C: isolated in).

Another test deals with T12, P1180_AMBTR (Amblyomma triste, UniProt A0A023G6B6 26-116).
T12 construct: Tick evasin; also called Evasin
T12 sequence: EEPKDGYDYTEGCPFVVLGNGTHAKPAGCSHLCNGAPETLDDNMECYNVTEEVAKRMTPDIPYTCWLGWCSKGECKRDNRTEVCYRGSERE
The description is as above.

The target in the next test is T13, P1182_AMBMA (Amblyomma maculatum, UniProt G3MJ83 27-115).
T13 construct: Tick evasin; also called Evasin
T13 sequence: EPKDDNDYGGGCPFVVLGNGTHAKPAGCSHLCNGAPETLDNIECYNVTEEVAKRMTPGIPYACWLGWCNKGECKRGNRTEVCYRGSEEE
The test is described as above.

The target of the next test is T14, P974_AMBCA (Amblyomma cajennense, UniProt A0A023FDY8 22-118).
T14 construct: Tick evasin; also called Evasin
T14 sequence: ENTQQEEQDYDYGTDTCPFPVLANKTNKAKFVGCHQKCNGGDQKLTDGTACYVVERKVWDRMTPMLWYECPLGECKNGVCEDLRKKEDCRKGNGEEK
The description is as above.

Test [4] concerns the target T15, P1243_AMBAM (Amblyomma americanum, UniProt A0A0C9S461 26-123).
T15 construct: Tick evasin; also called Evasin
T15 sequence: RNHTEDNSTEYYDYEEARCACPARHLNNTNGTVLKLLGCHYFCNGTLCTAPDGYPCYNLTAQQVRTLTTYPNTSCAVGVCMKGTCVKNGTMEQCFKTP
The test is described as above.

The next test deals with T16, P1181_AMBMA (Amblyomma maculatum, UniProt G3MIX6 26-115).
T16 construct: Tick evasin; also called Evasin
T16 sequence: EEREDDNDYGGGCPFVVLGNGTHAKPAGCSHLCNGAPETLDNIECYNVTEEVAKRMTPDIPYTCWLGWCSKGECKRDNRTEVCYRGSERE
The description is as above.

The target of another test is T17, P672_RHIPU (Rhipicephalus pulchellus, UniProt L7MC74 22-125).
T17 construct: Tick evasin; also called Evasin
T17 sequence: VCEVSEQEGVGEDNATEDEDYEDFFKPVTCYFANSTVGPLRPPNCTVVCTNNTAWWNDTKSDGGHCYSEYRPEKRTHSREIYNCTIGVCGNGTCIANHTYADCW
The description is as above.

The target of test [5] is B6. The test can be described thus: microscale thermophoresis, AlexaFluor 647 labelled chemokine.
Another test has as its target T18, CCL25_HUMAN (human, UniProt O15444 24-150).
T18 construct: Biotinylated (detected with streptavidin-Alexa647) in yeast display; AlexaFluor 647 labelled (Almac) in thermophoresis
T18 sequence: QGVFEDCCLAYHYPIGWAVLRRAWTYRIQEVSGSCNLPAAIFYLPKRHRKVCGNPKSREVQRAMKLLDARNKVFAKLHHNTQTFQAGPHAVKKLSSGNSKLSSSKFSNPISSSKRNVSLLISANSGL
The test is described as above.

The target of test [6] is T15, P1243_AMBAM. The description is as above.

T7 sequence (P51671 24-97 limits assumed): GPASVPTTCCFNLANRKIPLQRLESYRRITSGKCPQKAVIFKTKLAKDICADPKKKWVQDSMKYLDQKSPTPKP

B1: P1224_IXORI (other)
chain: SDLCKMEAESSPFKLPQSSLLDAPDEEGCKYQLLFVEAEGPLVVNCTKDCPNGKIRTVVEGELCIAMVKTSSSGEATGLVGSCKRGSCVKKDDPCRTFTLSEEGDDDEEDEEEEEDEEEDEEEDEEEEEEDEEEED
notes: as for B6
For B1, the binding result with CCL19_HUMAN, with CCL3_HUMAN and with CXCL10_HUMAN was “binds” each time.

B2: P1215_AMBPA (other)
chain: KTDTKNAAGELPPKVVIPGCEDPATTKAPLPDEPPYYGITIDKDGCQRKVLGSSQRQQRKVQNGRKLDGKKRGRRPVFVDLELTVDCKRKCNGTYSQLPDGENCLVSDGYPYGRWGTIKGGCYQGNCSSGQCHRGEKKVNCYLPKNITNDVPKSLNLAE
notes: as for B6
In the case of B2, the binding result with CCL18_HUMAN, with CCL1_HUMAN, with CXCL8_HUMAN and with CCL11_HUMAN was “binds” throughout. Also, the equilibrium dissociation constant (Kd) in the test with CCL5_HUMAN was determined as 0.073 µM.
For B3, the dissociation constant (Kd) with P985_AMBPA [1] and in the test with P467_RHIPU was 0.048 µM in each case.

B4: CCL4 (ligand)
chain: APMGSDPPTACCFSYTARKLPRNFVVDYYETSSLCSQPAVVFQTKRSKQVCADPSESWVQEYVYDLELN
notes: Biotinylated (detected with streptavidin-Alexa647) in yeast display; also called human CCL4
Take B4: the binding result in the test with P983_AMBCA, with P985_AMBPA [2], with P546_AMBCA [3], with P991_AMBCA, with P1180_AMBTR and with P1182_AMBMA was “binds” throughout. For the same molecule, the binding result with P974_AMBCA, with P1243_AMBAM [4] and with P1181_AMBMA was “binds” in each case.

B5: CCL8_HUMAN (ligand)
chain: QPDSVSIPITCCFNVINRKIPIQRLESYTRITNIQCPKEAVIFKTKRGKEVCADPKERWVRDSMKHLDQIFQNLKP
notes: as for B3
B5: the binding result with P1182_AMBMA and in the test with P672_RHIPU was “binds” each time. Moreover, the dissociation constant Kd in the test with P546_AMBCA [5] came out at 0.08 µM.
B6: binding with CCL25_HUMAN was put at a Kd of 1.22 µM.

B7: CCL15_HUMAN (ligand)
chain: QFTNDAETELMMSKLPLENPVVLNSFHFAADCCTSYISQSIPCSLMKSYFETSSECSKPGVIFLTKKGRQVCAKPSGPGVQDCMKKLKPYSI
notes: as for B3
In turn, B7 came in with an equilibrium dissociation constant (Kd) in the test with P1243_AMBAM [6] of 0.004 µM.

Source of the values: patent publication US20220175942A1 (OXFORD UNIVERSITY INNOVATION, published 2022).
